US9708382B2, “Peptide library” (Daiichi Sankyo Company, Limited, priority 2011, dated 2017)

What was measured:
[1] = target: T1, human EphA2 expressed on cell surface (Homo sapiens, UniProt P29317); assay: Flow cytometry binding to human EphA2-expressing HEK293T cells; type: cell-based; conditions: phage-displayed peptide, HEK293T cells transfected with human EphA2, human ErbB2-expressing cells as negative control
T1 construct: expressed in transfected cells; host or cells: HEK293T
Description: Human embryonic kidney cells (HEK293T cells) were cultured at 37° C. in the presence of 5% CO2 using a Dulbecco's modified eagle's medium (hereinafter, referred to as “DMEM”; manufactured by GIBCO, Life Technologies Corp.) containing 10% fetal bovine serum (FBS) (hereinafter, this medium is referred to as “DMEM-10% FBS”). For use in transfection or flow cytometry, the cells were dissociated from the plate for culture using 0.05% trypsin-EDTA (GIBCO), and the cell suspension was then centrifuged to recover cells, which were then resuspended in DMEM-10% FBS and used.
The HEK293T cells were transfected with a pcDNA-DEST40 Gateway vector (manufactured by Invitrogen Corp.) having an insert of the human EphA2 gene or the human ErbB2 gene as a negative control using Lipofectamine 2000 (manufactured by Invitrogen Corp.) according to the instructions.
The transfected cells were recovered. The recovered cells were suspended in a FACS buffer (PBS containing 5% FBS) and applied to a nylon mesh. The solution was dispensed in an amount of 5×10^5 cells/well to 96 Well Cell Culture Cluster Round Bottom With Lid (manufactured by Costar, Corning Inc.) and centrifuged to remove a supernatant. The phage stock solution prepared in the paragraph 1) of Example 4 was added to the resulting cells at a concentration of 50 μL/well, and the mixture was left standing at 4° C. for 30 minutes. A FACS buffer was added thereto at a concentration of 150 μL/well, and the mixture was centrifuged to remove a supernatant. Again, a FACS buffer was added thereto at a concentration of 200 μL/well, and the mixture was centrifuged to remove a supernatant (hereinafter, cells were washed in the same way as this operation). An Anti-M13 antibody diluted 100-fold was added to the obtained cells at a concentration of 50 μL/well as a primary antibody, and the mixture was left standing at 4° C. for 30 minutes, followed by washing of the cells. Subsequently, FLUORESCEIN-CONJUGATED GOAT IGG FRACTION TO MOUSE IGG (manufactured by Cappel, MP Biomedicals, LLC) diluted 1000-fold was added thereto as a secondary antibody, and the mixture was left standing at 4° C. for 30 minutes, followed by washing of the cells. The obtained cells were suspended in 250 μL of a FACS buffer and subjected to Cytomics FC 500 Flow Cytometry System (manufactured by Beckman Coulter, Inc.). Fluorescently stained cells were detected.

[2] = target: T2, Recombinant Mouse EphA2/Fc Chimera (mEphA2/Fc) (Mus musculus, UniProt Q03145); assay: Phage ELISA on solid-phase immobilized mEphA2/Fc; type: binding; conditions: phage-displayed peptide, compared with wild-type TACI_d2
T2 construct: purchased R&D systems, Inc
Description: (§1) As to 3 clones (α-EphA2 #1 to #3: corresponding to SEQ ID NOs: 3 to 5, respectively, in the Sequence Listing and to Nos. 2 to 4, respectively in FIG. 4) selected from the Escherichia coli colonies after the final round of panning with hEphA2 as a target molecule, an Escherichia coli suspension with OD600 nm=0.3 was prepared using 2×YT/Amp/1% Glu. The Escherichia coli cells of each clone were shake-cultured at 37° C. and allowed to grow until OD600 nm=0.5. A sufficient amount of helper phages M13K07 was added thereto to infect the cells at 37° C. for 30 minutes. After addition of 2×YT/Amp/Kan/0.25 mM IPTG, the helper phage-infected Escherichia coli was shake-cultured overnight at 22° C. 20% PEG/2.5 M NaCl solution was added to the recovered culture supernatant to precipitate phages. The precipitated phages were suspended in PBS. This phage stock solution and a series of two-fold dilutions with PBS were used in phage ELISA. An Escherichia coli TG-1 strain having a pCANTAB 5E vector containing the wild-type TACI_d2 gene was also subjected to the same operation as above to prepare phages.
Each of hEphA2, BSA, Recombinant Human BAFF/BLyS/TNFSF13B (R&D systems, Inc.; a polypeptide consisting of amino acids from Ala at position 134 to Leu at position 285 in human BAFF (UniProtKB/Swiss-Prot Accession # Q9Y275) and containing an N-terminally linked histidine tag, etc.; hereinafter referred to as “hBAFF”), and Recombinant Mouse EphA2/Fc Chimera, CF (R&D systems, Inc.; a polypeptide consisting of amino acids from Ala at position 22 to Ala at position 535 in mouse EphA2 (NCBI Accession No. #AAA82113) and containing a C-terminally linked Fc region (from Pro at position 100 to Lys at position 330) of human immunoglobulin G1 (hereinafter, referred to as “hIgG1”); hereinafter, referred to as “mEphA2/Fc”) was added to a Maxisorp plate and solid-phase immobilized overnight at 4° C. […] After washing of the Maxisorp plate with TBST again, the amount of a phage bound with the protein solid-phase immobilized on the plate was detected as absorbance at a wavelength of 405 nm using ELISA POD.

BAFF = BAFF (Homo sapiens, UniProt Q9Y275); conditions: compared with whole extracellular region (TACI_d1d2); cited from earlier work
APRIL = target: T3, APRIL (Homo sapiens, UniProt O75888); conditions: compared with whole extracellular region (TACI_d1d2); cited from earlier work
T3 sequence (O75888 105-250): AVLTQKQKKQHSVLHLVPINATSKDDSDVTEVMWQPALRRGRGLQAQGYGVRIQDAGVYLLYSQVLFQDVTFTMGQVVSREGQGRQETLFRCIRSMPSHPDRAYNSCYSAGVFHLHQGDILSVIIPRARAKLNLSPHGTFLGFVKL

[3] = target: T4, Recombinant Human BAFF/BLyS/TNFSF13B (hBAFF) (Homo sapiens, UniProt Q9Y275); assay: Phage ELISA on solid-phase immobilized hBAFF; type: binding; conditions: phage-displayed peptide, absorbance at 405 nm
T4 construct: amino acids from Ala at position 134 to Leu at position 285 in human BAFF; histidine tag (N); purchased R&D systems, Inc
Description: as §1, with “prepare phages. […]” for “prepare phages.”

T1 sequence (P29317 24-976): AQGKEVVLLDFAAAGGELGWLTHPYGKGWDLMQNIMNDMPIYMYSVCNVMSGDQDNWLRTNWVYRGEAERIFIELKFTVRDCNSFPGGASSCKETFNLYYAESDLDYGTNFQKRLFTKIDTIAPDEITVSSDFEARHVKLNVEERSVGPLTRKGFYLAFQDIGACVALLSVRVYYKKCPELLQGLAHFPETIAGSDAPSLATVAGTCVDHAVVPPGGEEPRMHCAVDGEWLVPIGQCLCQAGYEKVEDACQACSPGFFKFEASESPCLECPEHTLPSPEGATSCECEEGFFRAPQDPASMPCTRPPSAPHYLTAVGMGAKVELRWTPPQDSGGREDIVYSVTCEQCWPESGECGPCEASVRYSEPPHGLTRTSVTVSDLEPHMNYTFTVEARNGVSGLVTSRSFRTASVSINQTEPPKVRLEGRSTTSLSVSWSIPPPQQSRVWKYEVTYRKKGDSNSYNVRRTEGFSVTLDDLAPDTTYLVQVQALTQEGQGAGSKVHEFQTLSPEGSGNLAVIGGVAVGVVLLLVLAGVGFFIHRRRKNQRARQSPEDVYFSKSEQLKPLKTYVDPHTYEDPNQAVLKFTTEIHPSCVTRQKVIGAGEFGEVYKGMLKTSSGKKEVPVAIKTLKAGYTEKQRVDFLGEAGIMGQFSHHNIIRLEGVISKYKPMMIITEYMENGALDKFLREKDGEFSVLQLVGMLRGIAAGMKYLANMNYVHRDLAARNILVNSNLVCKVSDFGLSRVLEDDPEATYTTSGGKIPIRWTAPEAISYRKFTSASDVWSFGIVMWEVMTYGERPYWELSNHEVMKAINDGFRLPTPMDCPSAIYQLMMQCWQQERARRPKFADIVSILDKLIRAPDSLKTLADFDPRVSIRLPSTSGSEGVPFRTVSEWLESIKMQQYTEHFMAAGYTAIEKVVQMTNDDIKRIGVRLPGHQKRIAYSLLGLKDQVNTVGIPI
T2 sequence (Q03145 22-535, change not shown): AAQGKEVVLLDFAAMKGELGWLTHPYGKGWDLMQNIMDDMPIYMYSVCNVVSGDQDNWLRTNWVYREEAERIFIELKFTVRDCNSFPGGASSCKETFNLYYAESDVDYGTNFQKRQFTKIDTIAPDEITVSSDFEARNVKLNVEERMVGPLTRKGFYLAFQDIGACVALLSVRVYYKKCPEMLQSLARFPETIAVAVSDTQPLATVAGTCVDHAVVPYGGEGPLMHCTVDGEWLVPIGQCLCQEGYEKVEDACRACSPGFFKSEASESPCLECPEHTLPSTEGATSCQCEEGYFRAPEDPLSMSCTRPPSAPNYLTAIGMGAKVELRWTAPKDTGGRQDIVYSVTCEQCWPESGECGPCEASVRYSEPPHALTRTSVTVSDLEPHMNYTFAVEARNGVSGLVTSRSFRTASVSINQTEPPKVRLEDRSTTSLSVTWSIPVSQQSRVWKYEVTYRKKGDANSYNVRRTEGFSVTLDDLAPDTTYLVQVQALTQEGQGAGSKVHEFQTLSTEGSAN
T4 sequence (Q9Y275 134-285): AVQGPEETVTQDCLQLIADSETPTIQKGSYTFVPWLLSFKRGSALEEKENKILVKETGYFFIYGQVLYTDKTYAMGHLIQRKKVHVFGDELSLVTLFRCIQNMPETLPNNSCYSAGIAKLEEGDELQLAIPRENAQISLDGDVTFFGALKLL
Chain of BAFF (Q9Y275 134-285 limits assumed, species assumed): as the sequence (Q9Y275 134-285) above

Substance	binding to human EphA2 expressed on cell surface [1]	binding to human EphA2 expressed on cell surface ([1]; listed as α-EphA2 TACI_d2 #1)	cross reactivity to mEphA2 [2]	binding activity against BAFF (BAFF)	binding activity against APRIL (APRIL)	binding to the endogenous ligand hBAFF [3]	binding to human EphA2 expressed on cell surface ([1]; listed as α-EphA2 TACI_d2 #2)
SLSCRKEQGKQYLLREWDCDSCASECGSHPHYCAYFCEN (Amino acid sequence of human EphA2-binding peptide a-EphA2 #1) [α-EphA2 #1]	bound	specifically bound	stronger cross reactivity				
wild-type TACI_d2: wild-type C-terminal cysteine-rich domain of TACI, binds APRIL and BAFF				equivalent to the binding activity of the whole extracellular region (TACI_d1d2)	equivalent to the binding activity of the whole extracellular region (TACI_d1d2)	bind to the endogenous ligand hBAFF	
SLSCRKEQGKMYLLKEWDCASCASACGNHPHYCAYFCEN (Amino acid sequence of human EphA2-binding peptide a-EphA2 #2) [α-EphA2 #2]	bound		cross reactivity to mEphA2 at a level equivalent to wild-type TACI_d2				specifically bound
SLSCRKEQGKHYLLKEYDCDSCASECGYHPDYCAYFCEN (Amino acid sequence of human EphA2-binding peptide a-EphA2 #3) [α-EphA2 #3]			cross reactivity to mEphA2 at a level equivalent to wild-type TACI_d2				
